Measurements as given in patent US20220290162.

Biological target: Bxb1 serine integrase with ssrA degradation tag (Mycobacteriophage Bxb1?) (UniProt Q9B086)
Assay: cell_activity
Conditions: attB x attP inversion of P7 promoter, switched cells 42 C vs 37 C; E. coli Nissle

| Sequence | activity [fold] |
| --- | --- |
| GGGTTTGTACCGTACACCACTGAGACCGCGGTGGTTGACCAGACAAACCACGA (double strand) [Bxb1 attP] | > 100 |
| TCGGCCGGCTTGTCGACGACGGCGGTCTCCGTCGTCAGGATCATCCGGGC (double strand) [Bxb1 attB] | > 100 |
